Measured values as given in publication PMC11850899 (Communications Biology, 2025).
Where a chain is given by its changes, count along the chain named. Names and notes keep the numbering of the source. Where two headings read alike, the source gives them in different places.

B1: Bacillus subtilis DSR2 (defense-associated sirtuin 2), wild type (enzyme)
chain: MVKVDLESKRYGEKLKEVFLMLDNNVVECIKEITESSRNGKLVFFVGAGVSTLSDYPQWWRLVDKYHEELYGSPKKGNYSSDEYLRIPQIFYNVKGEMAFDGILKDFFQVDKPTNPIHDKILAMNPAHVITTNYDNLIDTACWKRGKYFSVISAEEDVANATSSRYLLKVHGDFRKGFKGENVVLKEDDYLNYDQNYPLISNLMKTIIATHTIVFIGYGLGDYNINMLLNWVRKLQKDSFHKPFFIRTDPSPIENETLIYYENKGLRIIDAASLIDSNEYDYLERYSAVMDLLIESQENKFITKDDEVIDYIYGKISPLFALQYIRKIDLKHVFEYDYHFEVNGTVVRHKNKGFGYMERFFELKESCDERSKLSKKQYERFNALFNFFEKNGVICMAKDAGTLNTSIEINSLAYHGKYDVMKKFIEEQSVSIEDDYKKAFFLACLGRWEESYDLYSNIILNSIDESNGCVYYLSQINRYRIYQSITQAVTQFNGLGLLTFGRHYKPFTDEFLARIEREMTNFNIDDLFNGMPFEFQKKYKILEFLSDNQFLYDDTVKLFELTNKVRSEMSEGSYSFGMSSDIVVLLRLYDNLRFLYENCLWSVSFHEFHQYIRNSMSLLIEKAEYERTRDIDELGFSFFGKKSGFFMEYYDFVNISRHFKIDDIKNLERSCSIDKIRFGEQEKIEEYLVGIAEEITKQFSANGMNVVFYTQFISEAKAALYFAKYVKLSEEGLGKIVKALLFYFPERDLDIGKRYVWLERLTKCNELPKSIISIIDDFLVLQAEKHIDQNYSEVSSNGLYSRDYGALIKHFEKNFISKRLSEITLCLTQDKQKQIDFLFKLLPLLSTNAKSHLLSFKSVENINDLMNGIRIGLIDEFTPEHEELIIEYLETRKVNYIVEKEKGIQTFSSNDYMSTFGIWYFLEEINNSKMEEFIGMDDQYDFFVDPENFDYKKFIPSWLKNYNDKLLGKIAGNKHMKHHVIEVLKERVKNSNDKRYLEILMNYFI
B2: Bacillus subtilis DSR2 H171A (catalytic mutant) (enzyme, UniProt P0DXN8 1-1005, looked up)
chain: B1 chain with H171A

Tests used:
cryo-EM structure [1] = target: the molecule itself; assay: cryo-EM structure
cryo-EM structure [2] = target: the molecule itself; assay: cryo-EM structure; remark: listed apart in the source

Row | Protein | stoichiometry N (cryo-EM structure [1]) | stoichiometry N (cryo-EM structure [2])
1 | B1 | 4 | –
2 | B2 | – | 4
